Key:
[1] = biological target: T1, recombinant SARS-CoV-2 RBD with C-terminal AviTag (SARS-CoV-2, UniProt P0DTC2 319-541); test: ELISA, competition with coated ACE2-Fc for RBD [Cont. 5]
[2] = biological target: T2, SARS-CoV-2 spike protein on pseudotyped lentivirus (Wuhan Reference Pseudovirus) (SARS-CoV-2, UniProt P0DTC2 14-1273); test: cell-based or functional assay
[3] = biological target: SARS-CoV-2 Delta Variant spike protein on pseudotyped lentivirus (SARS-CoV-2 Delta variant); test: cell-based or functional assay
[4] = biological target: T2, SARS-CoV-2 spike protein on pseudotyped …; test: cell-based or functional assay; remark: listed apart in the source
[5] = biological target: SARS-CoV-2 Gamma Variant spike protein on pseudotyped lentivirus (SARS-CoV-2 Gamma variant); test: cell-based or functional assay
[6] = biological target: T2, SARS-CoV-2 spike protein on pseudotyped …; test: cell-based or functional assay; remark: listed apart in the source
[7] = biological target: T3, SARS-CoV-2 Delta Variant RBD (SARS-CoV-2 Delta variant); test: ELISA, RBD coated
T3 construct: domain: RBD; coated on ELISA plates

[8] = biological target: T4, SARS-CoV-2 Alpha Variant RBD (SARS-CoV-2 Alpha variant); test: ELISA, RBD coated
T4 construct: domain: RBD; coated on ELISA plates

[9] = biological target: T2, SARS-CoV-2 spike protein on pseudotyped …; test: cell-based or functional assay; remark: listed apart in the source
[10] = biological target: T2, SARS-CoV-2 spike protein on pseudotyped …; test: cell-based or functional assay; remark: listed apart in the source
[11] = biological target: T1, recombinant SARS-CoV-2 RBD with …; test: ELISA, competition with coated ACE2-Fc for RBD [Cont. 4]
[12] = biological target: T2, SARS-CoV-2 spike protein on pseudotyped …; test: cell-based or functional assay; remark: listed apart in the source
[13] = biological target: T5, SARS-CoV-2 Beta Variant RBD (SARS-CoV-2 Beta variant); test: ELISA, RBD coated
T5 construct: domain: RBD; coated on ELISA plates

[14] = biological target: T6, SARS-CoV-2 Gamma Variant RBD (SARS-CoV-2 Gamma variant); test: ELISA, RBD coated
T6 construct: domain: RBD; coated on ELISA plates

Binder | infectivity % under 10 ug/mL VHH treatment [2] | Pseudovirus neutralization IC50 [4] | Pseudovirus inhibition IC50 [Cont. 6] [9] | other results
PP847 MBP-R5E-D1-H6 (VHH, Form: Monomer) VHH: QVQLVESGGGLVQPGGSLRLSCAASGFEFSTSAMHWYRQAPGKQREWVARITSGGSDNYGDSVKGRFTISRDNAKNTVYLQMNSLKPEDTAVYYCAAYVGTDNYGYDYWGQGTQVTVSS | 77.1% | – | – | IC50 [1]: 2.9 nM
PP1146 MBP-5HVZ-PAPA-R2d-D3-H6 (VHH, Form: Dimer) VHH: QVQLVESGGGLVQPGGSLRLSCAASGHIFSINNAAWVRQAPGKSREGVATIHSGGGTYYSDSVKGRFTISRDNAKNTVYLQMNSLKPEDTAVYYCNAEVSTGAGSRGRVSDVYWGQGTQVTVSS | 32.8% | 36.2 nM | – | Pseudovirus neutralization IC50 [3]: 4.17 nM; Pseudovirus neutralization IC50 [5]: 6.62 nM; Pseudovirus inhibition IC50 [Cont. 1] [6]: 77 nM
PP903 MBP-5HVZ-R1i-A11-H6 (VHH, Form: Dimer) VHH: QVQLVESGGGLVQPGGSLRLSCAASGSILQINAIHWFRQAPGKQREEVAAITSGGSTGYADSVKGRFTISRDNAKNTVYLQMNSLKPEDTAVYYCAATSTRGGLDSDYWGQGTQVTVSS | 38.4% | 56.7 nM | 50.4 nM | EC50 [7]: 0.26 nM; EC50 [8]: 0.28 nM
PP1897 Cerberbody (3-S3b-C8) (other, not shown: large carriers) chain 1: QVQLVESGGGLVQPGGSLRLSCAASGSIENIERMHWYRQAPGKQRELVAVIDSGGTTRYADSVKGRFTISRDNAKNTVYLQMNSLKPEDTAVYYCAAVWLTNAESTQEYWGQGTQVTVSSHHHHHH chain 2: QVQLVESGGGLVQPGGSLRLSCAASGSIENIERMHWYRQAPGKQRELVAVIDSGGTTRYADSVKGRFTISRDNAKNTVYLQMNSLKPEDTAVYYCAAVWLTNAESTQEYWGQGTQVTVSSTVILEYAHRLSQDILSDALQQWASHHHHHHHH | – | – | – | Pseudovirus neutralization IC50 [3]: 0.09 nM
PP1151 MBP-5HVZ-PAPA-R5d-B5-H6 (VHH, Form: Dimer) VHH: QVQLVESGGGLVQPGGSLRLSCAASGSRDSIVAMHWYRQAPGKGREGVAGITSRWVTYYADSVKGRFTISRDNAKNTVYLQMNSLKPEDTAVYYCNAPVYYDTEWYDIWGQGTQVTVSS | 35.6% | 15.3 nM | – | Pseudovirus inhibition IC50 [Cont. 4] [10]: 43.7 nM
MBP-5HVZ-R5D-B5-H6 (VHH, dimer) VHH: QVQLVESGGGLVQPGGSLRLSCAASGSRDSIVAMHWYRQAPGKGREGVAGITSRWVTYYADSVKGRFTISRDNAKNTVYLQMNSLKPEDTAVYYCNAPVYYDTEWYDIWGQGTQVTVSS | – | – | – | IC50 [11]: 53.7 nM; Pseudovirus inhibition IC50 [Cont. 4] [10]: 3.25 nM
PP1143 MBP-5HVZ-PAPA-R2b-D5-H6 (VHH, Form: Dimer) VHH: QVQLVESGGGLVQPGGSLRLSCAASGYADEINMVHWYRQAPGKGREFVAAIASGGSTFYADSVKGRFTISRDNAKNTVYLQMNSLKPEDTAVYYCAAIPRPSLSYAHDYAYWGQGTQVTVSS | 0.09% | 0.301 nM | – | Pseudovirus inhibition IC50 [12]: 0.6 nM; Pseudovirus neutralization IC50 [5]: 3.13 nM
PP1131 MBP-4B0F-PAPA-R2b-D5-H6 (VHH, Form: Heptamer) VHH: QVQLVESGGGLVQPGGSLRLSCAASGYADEINMVHWYRQAPGKGREFVAAIASGGSTFYADSVKGRFTISRDNAKNTVYLQMNSLKPEDTAVYYCAAIPRPSLSYAHDYAYWGQGTQVTVSS | -0.01% | 0.93 nM | – | Pseudovirus inhibition IC50 [12]: 0.89 nM
MBP-R2B-D5-H6 (VHH, monomer) VHH: QVQLVESGGGLVQPGGSLRLSCAASGYADEINMVHWYRQAPGKGREFVAAIASGGSTFYADSVKGRFTISRDNAKNTVYLQMNSLKPEDTAVYYCAAIPRPSLSYAHDYAYWGQGTQVTVSS | – | – | – | Pseudovirus inhibition IC50 [12]: 176 nM
PP1155 MPB-scTRP-PAPA-R2b-D5-H6 (VHH, Form: Trimer) VHH: QVQLVESGGGLVQPGGSLRLSCAASGYADEINMVHWYRQAPGKGREFVAAIASGGSTFYADSVKGRFTISRDNAKNTVYLQMNSLKPEDTAVYYCAAIPRPSLSYAHDYAYWGQGTQVTVSS | 0.01% | 0.634 nM | – | Pseudovirus inhibition IC50 [12]: 1.9 nM
PP848 MBP-R5E-G2-H6 (VHH, Form: Monomer) VHH: QVQLVESGGGLVQPGGSLRLSCAASGTIKSINAMHWFRQAPGKAREFVASIGSNGAKSYSDSVKGRFTISRDNAKNTVYLQMNSLKPEDTAVYYCTALITVAESDDYDYWGQGTQVTVSS | 81.9% | – | – | IC50 [1]: 2.1 nM
PP1147 MBP-5HVZ-PAPA-R5a-B7-H6 (VHH, Form: Dimer) VHH: QVQLVESGGGLVQPGGSLRLSCAASGAFFSYGAIHWFRQAPGKQREEVAAITSGGSTGYADSVKGRFTISRDNAKNTVYLQMNSLKPEDTAVYYCNAGVVWLPSNAAYNLWGQGTQVTVSS | 1.79% | 12.3 nM | 0.44 nM | EC50 [7]: 0.49 nM; EC50 [8]: 0.33 nM; Pseudovirus neutralization IC50 [3]: 1.13 nM
PP1159 MPB-scTRP-PAPA-R5a-B7-H6 (VHH, Form: Trimer) VHH: QVQLVESGGGLVQPGGSLRLSCAASGAFFSYGAIHWFRQAPGKQREEVAAITSGGSTGYADSVKGRFTISRDNAKNTVYLQMNSLKPEDTAVYYCNAGVVWLPSNAAYNLWGQGTQVTVSS | 17.7% | 31.9 nM | 7.98 nM | Pseudovirus inhibition IC50 (second row with the same construct name) [Cont. 6] [9]: 215 nM
PP1135 MBP-4B0F-PAPA-R5a-B7-H6 (VHH, Form: Heptamer) VHH: QVQLVESGGGLVQPGGSLRLSCAASGAFFSYGAIHWFRQAPGKQREEVAAITSGGSTGYADSVKGRFTISRDNAKNTVYLQMNSLKPEDTAVYYCNAGVVWLPSNAAYNLWGQGTQVTVSS | -0.03% | 0.533 nM | 2.13 nM | –
PP1103 MBP-5HVZ-PAPA-RN-18-H6 (VHH, Form: Dimer) VHH: QVQLVESGGGLVQPGGSLRLSCAASGYYFQIVAMHWYRQAPGKEREGVAGITSTGSTYYGDSVKGRFTISRDNAKNTVYLQMNSLKPEDTAVYYCNAVSTDAQGAAEYWGQGTQVTVSS | 57.6% | – | – | EC50 [7]: 2.69 nM; EC50 [13]: 227 nM; EC50 [14]: 92.8 nM; EC50 [8]: 1.45 nM; Pseudovirus neutralization IC50 [3]: 2.49 nM
PP900 MBP-5HVZ-R5a-F2-H6 (VHH, Form: Dimer) VHH: QVQLVESGGGLVQPGGSLRLSCAASGSISSIEAMSWFRQAPGKQREGVATMASGGDTSYADSVKGRFTISRDNAKNTVYLQMNSLKPEDTAVYYCAAQTYRPDTWGRYTFWGQGTQVTVSS | 18.3% | 29.6 nM | 59.3 nM | EC50 [13]: 709 nM; EC50 [14]: 340 nM; EC50 [8]: 34 nM
PP899 MBP-5HVZ-R5a-B5-H6 (VHH, Form: Dimer) VHH: QVQLVESGGGLVQPGGSLRLSCAASGDDFIENAISWYRQAPGKGREWVAAVTLGGHSNYADSVKGRFTISRDNAKNTVYLQMNSLKPEDTAVYYCNYPVGIPAVAIDGRRSYGYWGQGTQVTVSS | 2.43% | 2.29 nM | 5.25 nM | –
PP1152 MBP-5HVZ-PAPA-R5d-B6-H6 (VHH, Form: Dimer) VHH: QVQLVESGGGLVQPGGSLRLSCAASGRILAANIVHWYRQAPGKEREGVAGITSGGGSYYADSVKGRFTISRDNAKNTVYLQMNSLKPEDTAVYYCNALGLGQSSLYRSADPYDSWGQGTQVTVSS | 4.64% | 3.87 nM | – | Pseudovirus inhibition IC50 [Cont. 4] [10]: 0.85 nM
MBP-5HVZ-R5D-B6-H6 (VHH, dimer) VHH: QVQLVESGGGLVQPGGSLRLSCAASGRILAANIVHWYRQAPGKEREGVAGITSGGGSYYADSVKGRFTISRDNAKNTVYLQMNSLKPEDTAVYYCNALGLGQSSLYRSADPYDSWGQGTQVTVSS | – | – | – | IC50 [11]: 15.7 nM; Pseudovirus inhibition IC50 [Cont. 4] [10]: 3.26 nM
dimeric VHH (VHH-5HVZ-MBP) R2B-E6 (VHH) VHH: QVQLVESGGGLVQPGGSLRLSCAASGGVTRGNAMAWYRQAPGKQREIVAAIDNGGSHAYGDSVKGRFTISRDNAKNTVYLQMNSLKPEDTAVYYCAVFPDHDSEQASIDRVYWGQGTQVTVSS | – | – | – | Pseudovirus inhibition IC50 [12]: 358 nM
